T1: human type-2 IL-4 receptor expressed by the human lung fibroblast cell line A549 (human, UniProt P24394 26-825; P78552 22-427)
T1 sequence (looked up) 1: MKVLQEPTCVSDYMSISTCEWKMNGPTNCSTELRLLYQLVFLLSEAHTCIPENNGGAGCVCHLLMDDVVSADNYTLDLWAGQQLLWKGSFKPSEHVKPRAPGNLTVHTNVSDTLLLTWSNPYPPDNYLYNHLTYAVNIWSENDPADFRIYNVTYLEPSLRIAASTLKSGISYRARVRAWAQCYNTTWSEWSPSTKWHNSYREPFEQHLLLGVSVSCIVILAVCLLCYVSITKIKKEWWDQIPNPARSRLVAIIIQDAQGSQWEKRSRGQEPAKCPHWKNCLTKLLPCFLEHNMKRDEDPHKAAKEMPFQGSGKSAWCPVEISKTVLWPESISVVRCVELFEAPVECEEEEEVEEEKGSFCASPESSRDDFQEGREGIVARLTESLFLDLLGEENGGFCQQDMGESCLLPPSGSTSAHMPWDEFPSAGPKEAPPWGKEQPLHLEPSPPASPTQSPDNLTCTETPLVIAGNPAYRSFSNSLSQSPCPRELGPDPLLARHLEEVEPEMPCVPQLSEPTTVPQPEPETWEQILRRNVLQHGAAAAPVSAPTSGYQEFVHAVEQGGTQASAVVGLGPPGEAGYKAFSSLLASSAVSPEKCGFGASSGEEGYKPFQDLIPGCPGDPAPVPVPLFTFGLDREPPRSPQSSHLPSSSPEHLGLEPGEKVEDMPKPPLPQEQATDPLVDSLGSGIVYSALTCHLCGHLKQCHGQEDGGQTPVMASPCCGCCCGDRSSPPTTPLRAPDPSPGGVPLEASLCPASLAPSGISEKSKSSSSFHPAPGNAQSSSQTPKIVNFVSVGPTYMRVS
T1 sequence (looked up) 2: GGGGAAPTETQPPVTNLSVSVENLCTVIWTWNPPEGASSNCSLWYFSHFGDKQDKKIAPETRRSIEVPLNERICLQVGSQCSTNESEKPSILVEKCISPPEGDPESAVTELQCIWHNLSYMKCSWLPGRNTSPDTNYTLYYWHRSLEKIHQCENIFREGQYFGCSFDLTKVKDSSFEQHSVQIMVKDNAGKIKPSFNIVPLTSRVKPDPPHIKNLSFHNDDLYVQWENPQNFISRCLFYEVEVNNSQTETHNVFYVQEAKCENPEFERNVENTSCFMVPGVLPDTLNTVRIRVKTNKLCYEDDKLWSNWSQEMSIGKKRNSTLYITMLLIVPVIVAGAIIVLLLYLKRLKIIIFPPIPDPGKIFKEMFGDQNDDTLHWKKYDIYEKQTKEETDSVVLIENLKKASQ

T2: mIL-13R2-Fc (catalogue number 539-IR-100, R+D Systems) (mouse, UniProt O88786 22-334)
T2 construct: Bought; also called mIL-13Rα2; mouse IL-13 receptor; not shown: Fc part; captured on plates with anti-human IgG
T2 sequence (looked up): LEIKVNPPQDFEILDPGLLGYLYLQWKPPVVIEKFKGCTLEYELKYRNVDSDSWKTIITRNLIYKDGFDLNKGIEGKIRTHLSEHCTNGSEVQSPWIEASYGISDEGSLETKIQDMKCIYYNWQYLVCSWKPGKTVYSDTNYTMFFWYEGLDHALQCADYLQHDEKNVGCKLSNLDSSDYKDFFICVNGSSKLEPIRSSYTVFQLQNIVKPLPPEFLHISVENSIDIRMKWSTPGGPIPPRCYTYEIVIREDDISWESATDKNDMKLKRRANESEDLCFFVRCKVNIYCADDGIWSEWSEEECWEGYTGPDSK

T3: mIL-13R1-Fc (catalogue number 491-IR-200, R+D Systems) (mouse, UniProt O09030 26-340)
T3 construct: Bought; also called mIL-13Rα1; mouse IL-13 receptor; not shown: Fc part; captured on plates with anti-human IgG
T3 sequence (looked up): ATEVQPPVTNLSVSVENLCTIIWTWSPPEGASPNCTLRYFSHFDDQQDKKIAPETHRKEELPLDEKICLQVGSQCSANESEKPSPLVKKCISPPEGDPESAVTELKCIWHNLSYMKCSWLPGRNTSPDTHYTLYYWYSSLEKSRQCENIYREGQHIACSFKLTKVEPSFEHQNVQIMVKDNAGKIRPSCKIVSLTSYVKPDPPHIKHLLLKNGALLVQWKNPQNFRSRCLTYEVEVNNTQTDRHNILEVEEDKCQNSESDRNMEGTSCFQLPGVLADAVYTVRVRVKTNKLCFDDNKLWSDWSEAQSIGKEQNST


What was measured:
[1] = target: T1, human type-2 IL-4 receptor expressed by …; assay: cell-based or functional assay
[2] = target: T2, mIL-13R2-Fc (catalogue number …); assay: ELISA, receptor-Fc captured on anti-human IgG, detection with biotinylated anti-mIL-13
Method: (§1) ELISAs were set up to determine whether cIL-13 could bind to either of the known mouse IL-13 receptors (mIL-13R1 or mIL-13R2). 96-well Maxisorp plates were coated with anti-human IgG (catalogue number I-3382, Sigma Aldrich) in carbonate-bicarbonate buffer overnight at 4° C. Plates were then blocked with 3% BSA/TBST for 1 hour at RT, washed 3 times in TBST, and incubated with mIL-13R1-Fc or mIL-13R2-Fc (catalogue numbers 491-IR-200 and 539-IR-100 respectively, R+D Systems) for 1 hour at RT. After washing, plates were incubated with dilutions of mIL-13 or cIL-13 or GST-cIL-13 for 1 hour at RT, washed again and incubated with biotinylated anti-mIL-13 (catalogue number BAF413, R+D Systems). Following further washing and incubation with streptavidin conjugated horse-radish peroxidase, the plates were developed with 0-phenylenediamine dihydrochloride peroxidase substrate for 30 minutes.

[3] = target: T3, mIL-13R1-Fc (catalogue number …); assay: as above
Method: as §1

Binder	fold decrease in bioactivity against mIL-13 (STAT6 phosphorylation in A549 cells) [1]	binding result [2]	binding result [3]
chimaeric IL-13 (free cIL-13 generated from GST-cIL-13 by thrombin cleavage) (ligand, also called mouse chimaeric IL-13 vaccine construct) GPVPRSVSLPLTLRELIEELVNITQDQTPLCNGSMVWSVDLAAGGYCAALESLTNISNCNAIEKTQRMLGGLCNRKAPTTVSSLPDTKIEVAQFVKDLLSYTKQLFRHGPF	~5 fold	binds	binds
GST-cIL-13 (genetic fusion protein of glutathione-S-transferase and chimaeric IL-13) (other, Expressed in E. coli BLR from pGEX4T3-cIL-13; also called GST-cIL-3; not shown: glutathione-S-transferase as encoded by vector pGEX4T3 (Amersham Pharmacia); short spacer which contains the recognition site for thrombin) GPVPRSVSLPLTLRELIEELVNITQDQTPLCNGSMVWSVDLAAGGYCAALESLTNISNCNAIEKTQRMLGGLCNRKAPTTVSSLPDTKIEVAQFVKDLLSYTKQLFRHGPF	–	binds	binds

Source: patent US20030194391A1 (published 2003)
